Laboratory results as given in US11332546B2, “Protease inhibitory antibodies and methods of use thereof” (The Regents of The University of California, priority 2019, dated 2022).
Positions count from the first letter of the chain named.

T1: BACE2 (Homo sapiens, UniProt Q9Y5Z0)
T1 sequence (Q9Y5Z0 63-518): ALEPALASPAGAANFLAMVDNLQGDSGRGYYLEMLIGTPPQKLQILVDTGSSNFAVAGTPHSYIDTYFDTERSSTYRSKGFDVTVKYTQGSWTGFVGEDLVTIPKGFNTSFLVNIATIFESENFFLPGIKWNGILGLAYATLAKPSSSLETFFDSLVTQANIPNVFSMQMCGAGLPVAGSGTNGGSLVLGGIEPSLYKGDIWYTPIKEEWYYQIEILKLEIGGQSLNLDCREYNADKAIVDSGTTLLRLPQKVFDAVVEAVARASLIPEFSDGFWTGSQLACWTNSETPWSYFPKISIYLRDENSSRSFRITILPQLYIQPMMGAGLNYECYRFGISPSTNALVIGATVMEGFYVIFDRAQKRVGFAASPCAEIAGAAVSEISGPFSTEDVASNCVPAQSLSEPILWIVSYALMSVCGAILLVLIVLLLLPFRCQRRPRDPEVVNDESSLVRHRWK

B1: Fab B3B12: anti-BACE-1 antibody clone; VL SEQ ID NO:25, VH SEQ ID NO:29, CDR-H3 SEQ ID NO:32 (antibody, V domains shown)
VH: EVQLVESGGGLVQPGGSLRLSCAASGFNIPYSSMHWVRQAPGKGLEWVASISSYSSSTSYADSVKGRFTISADTSKNTAYLQMNSLRAEDTAVYYCARYICGHRWRDFDMWRARTGVNYAMDYWGQGTLVTVSSAS
VL: DIQMTQSPSSLSASVGDRVTITCRASQSVGTYLNWYQQKPGKAPKLLIYATSNLRSGVPSRFSGSGSGTDFTLTISSLQPEDFATYYCQQSYSIPRFTFGPGTKLEIKR
B2: IgG B3B12: anti-BACE1 inhibitory Fab B3B12 converted into IgG format (antibody, V domains shown)
VH: B1 VH
VL: B1 VL
B3: Fab 2B12: anti-MMP-14 antibody clone; VL SEQ ID NO:90, VH SEQ ID NO:5, CDR-H3 SEQ ID NO:8 (antibody, V domains shown)
VH: EVQLVESGGGLVQPGGSLRLSCAASGFNIYYSSMHWVRQAPGKGLEWVAYIYSSSSYTYYADSVKGRFTISADTSKNTAYLQMNSLRAEDTAVYYCARDCCSCVFSQSAGITLACVYVMDYWGQGTLVTVSSAS
VL: DIQMTQSPSSLSASVGDRVTITCRASQSVSSAVAWYQQKPGKAPKLLIYSASSLYSGVPSRFSGSRSGTDFTLTISSLQPEDFATYYCQQWGPHYAPITFGQGTKVEIKR
B4: Fab 1A5: anti-MMP-14 antibody clone; VL SEQ ID NO:92, VH SEQ ID NO:9, CDR-H3 SEQ ID NO:12 (antibody, V domains shown)
VH: EVQLVESGGGLVQPGGSLRLSCAASGFNLYYYYMHWVRQAPGKGLEWVAYIYPYSGSTYYADSVKGRFTISADTSKNTAYLQMNSLRAEDTAVYYCARLDFLMRDIYYDLGGGALGWLIKYAMDYWGQGTLVTVSSAS
VL: DIQMTQSPSSLSASVGDRVTITCRASQSVSSAVAWYQQKPGKAPKLLIYSASSLYSGVPSRFSGSRSGTDFTLTISSLQPEDFATYYCQQYSGPYPITFGQGTKVEIKR
B5: Fab B1A4: anti-BACE-1 antibody clone; VL SEQ ID NO:33, VH SEQ ID NO:37, CDR-H3 SEQ ID NO:40 (antibody, V domains shown)
VH: EVQLVESGGGLVQPGGSLRLSCAASGFNISYSSIHWVRQAPGKGLEWVAYISPSSSYTSYADSVKGRFTISADTSKNTAYLQMNSLRAEDTAVYYCARHYYVSVGSGIDYWGQGTLVTVSSAS
VL: DIQMTQSPSSLSASVGDRVTITCRASQSVSSAVAWYQQKPGKAPKLLIYSASSLYSGVPSRFSGSRSGTDFTPTISSLQPEDFATYYCQQASASPYALITFGQGTKVEIKR
B6: Fab B2B5: anti-BACE-1 antibody clone; VL SEQ ID NO:100, VH SEQ ID NO:41, CDR-H3 SEQ ID NO:43 (antibody, V domains shown)
VH: EVQLVESGGGLVQPGGSLRLSCAASGFNIYYSYMHWVRQAPGKGLEWVASIYPYYGSTYYADSVKGRFTISADTSKNTAYLQMNSLRAEDTAVYYCARWHGYPPGYSYYSSFSSSGFDYWGQGTLVTVSSAS
VL: B4 VL with L73P, Y91S, S92Y, G93F, P94S
B7: Fab B2B2: anti-BACE-1 antibody clone; VL SEQ ID NO:44, VH SEQ ID NO:46, CDR-H3 SEQ ID NO:49 (antibody, V domains shown)
VH: EVQLVESGGGLVQPGGSLRLSCAASGFNISSYYMHWVRQAPGKGLEWVASIYSSYGYTYYADSVKGRFTISADTSKNTAYLQMNSLRAEDTAVYYCARYWGYYAWFGSHPWAYGAFDYWGQGTLVTVSSAS
VL: DIQMTQSPSSLSASVGDRVTITCRASQSVSSAVAWYQQKPGKAPKLLIYSASSLYSGVPSRFSGSRSGTDFTLTISSLQPEDFATYYCQQYGYYLITFGQGTKVEIKR
B8: Fab B2B3: anti-BACE-1 antibody clone; VL SEQ ID NO:102, VH SEQ ID NO:50, CDR-H3 SEQ ID NO:52 (antibody, V domains shown)
VH: EVQLVESGGGLVQPGGSLRLSCAASGFNISYSSIHWVRQAPGKGLEWVAYISSYSSSTYYADSVKGRFTISADTSKNTAYLQMNSLRAEDTAVYYCARSASGIDYWGQGTLVTVSSAS
VL: B7 VL with Y91S, Y94A, L95P, I96F
B9: Fab B2B9: anti-BACE-1 antibody clone; VL SEQ ID NO:96, VH SEQ ID NO:53, CDR-H3 SEQ ID NO:56 (antibody, V domains shown)
VH: EVQLVESGGGLVQPGGSLRLSCAASGFNISYSSMHWVRQAPGKGLEWVASIYPSYSYTSYADSVKGRFTISADTSKNTAYLQMNSLRAEDTAVYYCARSSSSYYYGMDYWGQGTLVTVSSAS
VL: B7 VL with Y91S, G92S, Y94S
B10: Fab B1B3: anti-BACE-1 antibody clone; VL SEQ ID NO:104, VH SEQ ID NO:61, CDR-H3 SEQ ID NO:64 (antibody, V domains shown)
VH: EVQLVESGGGLVQPGGSLRLSCAASGFNISYYSMHWVRQAPGKGLEWVASISPYYGSTYYADSVKGRFTISADTSKNTAYLQMNSLRAEDTAVYYCARERSSCPVGWRDSRFGADGYGLEYWGQGTLVTVSSAS
VL: B3 VL with W91S, P93H, H94Y, Y95H, A96S, P97L

Experiments:
cdMMP-12 mutant D4 = biological target: T2, cdMMP-12 mutant D4 (Homo sapiens, UniProt P39900, A167E/A173P/A252Q/H206S/I245T/K233R/M156E/N119Q/N126H/R135E/T215V/V161I/Y113D/Y132K); test: Bio-layer interferometry (BLItz) on cdMMP-12 D4; format: binding; settings: read-out: Affinity on cdMMP-12 D4
T2 construct: hexahistidine (C); made in house; host or cells: E. coli BL21, pET32b (cytoplasmic, soluble fraction)
Description: ELISA and binding kinetics measurement Purified cdMMP-9, cdMMP-12 D4/wt, and cdMMP-14 were biotinylated by using EZ-Link Sulfo-NHS-LC kit (Thermo Fisher). On streptavidin coated ELISA plates, 5 μg/mL biotinylated cdMMPs were immobilized and incubated with two-fold serially diluted purified Fabs. Bound Fabs were detected with anti-Fab-HRP (Sigma-Aldrich), and signals were developed by TMB substrate (Thermo Scientific) and measured using a microplate reader (BioTek). In competitive ELISA, 500 nM Fabs of interest were mixed with 0.01-10 μM GM6001 or 0.8-200 μM nTIMP-2 for 30 min, then transferred to ELISA plates coated with cdMMP-12 D4/wt for incubation 15 min at room temperature. Bound Fabs were detected using anti-Fab-HRP. For bio-layer interferometry (using ForteBio BLItz), biotinylated cdMMP-12 D4/wt was loaded onto streptavidin biosensors. After washing to establish baselines, 50, 100, or 200 nM of Fabs were associated with immobilized cdMMP-12 D4/wt for 200 sec, then dissociated into 50 mM HEPES, 150 mM NaCl pH 7.5 for 120 sec. Averages of measured kon and koff values were determined for KD calculations.

cdMMP-12 wt = biological target: T3, cdMMP-12 wt (Homo sapiens, UniProt P39900); test: Fibronectin proteolysis inhibition, cdMMP-12 wt (western blot); format: biochemical; settings: 2 μM GM6001; 350 nM wt cdMMP-12, 200 nM fibronectin, 37° C.
T3 construct: hexahistidine (C); made in house; host or cells: E. coli BL21 (pET32b, cytoplasmic)
Description: Inhibition tests with macromolecular substrates 10 μg/mL FITC-conjugated elastin (AnaSpec) was incubated with 7 nM cdMMP-12 D4/wt and 2-2000 nM purified Fab in 50 mM Tris-HCl, 150 mM NaCl, 5 mM CaCl2), 100 μM ZnCl2 pH 7.5. Generated fluorescent signals were measured at 12 h with λEx of 490 nm and λEm of 520 nm. […] The samples were separated on 5% non-reducing SDS-PAGE and analyzed by western blotting with anti-Fibronectin antibody (Abcam) and chemiluminescent substrate (Thermo Scientific). […] Assays without cdMMP-12s or Fabs were performed as controls.

BACE1 [1] = biological target: T4, BACE1 (Homo sapiens, UniProt P56817); test: FRET peptide inhibition assay, BACE1 (M-2420); format: biochemical; settings: BACE-1, FRET peptide; for Ki: Fab, read-out: Inhibition Potency KI; for Inhibition Potency KI (associated IgG, in parentheses): IgG format
T4 construct: human β-secretase 1 (BACE1, residue 46-457); made in house; host or cells: HEK293F (secreted, protein A purified)
Description: (§1) For inhibition tests, 1 μM Fabs were 2-fold serially diluted into protease specific assay buffer and incubated with 1-10 nM proteases for 30 min at room temperature. […] Inhibition percentages at given concentrations were calculated by comparing the initial reaction rates in the presence or absence of inhibitor. IC50 was determined as the concentration that achieved 50% inhibition, and KI values were calculated using KI=IC50/(S/Km+1). Vmax and Km at various Fab concentrations were measured to determine the inhibition type. FRET inhibition assays were also used for selectivity tests of isolated Fabs with the relevant proteases.

BACE1 [2] = biological target: T4, BACE1; test: Binding kinetics by biolayer interferometry, Fabs/IgGs on BACE1; settings: for Kd: Fab, read-out: Binding Affinity KD; for Binding Affinity KD (associated IgG, in parentheses): IgG format
Description: Binding kinetics of produced antibodies towards associated protease targets were analyzed by using biolayer interferometry (ForteBio). For Fabs, biotinylated proteases were immobilized on streptavidin biosensors, and Fab binding to the sensors in absence of protease was monitored as backgrounds. For IgGs, protein A sensors were used and protease bindings without IgG were checked as backgrounds. kon and koff were determined for KD calculations. […] Fab in vitro stability was tested by incubating 1 μM Fab with 1 μM of the respective protease in the assay buffer for 12 hours and the samples were analyzed by SDS-PAGE.

BACE2 = biological target: T1, BACE2; test: FRET inhibition selectivity test, BACE2; format: biochemical; settings: IgG
Description: as §1

cdMMP-9 = test: FRET inhibition selectivity test, cdMMP-9 (Example 1); format: biochemical; settings: Fab at 500 nM
Description: as §1

T4 sequence (P56817 46-457): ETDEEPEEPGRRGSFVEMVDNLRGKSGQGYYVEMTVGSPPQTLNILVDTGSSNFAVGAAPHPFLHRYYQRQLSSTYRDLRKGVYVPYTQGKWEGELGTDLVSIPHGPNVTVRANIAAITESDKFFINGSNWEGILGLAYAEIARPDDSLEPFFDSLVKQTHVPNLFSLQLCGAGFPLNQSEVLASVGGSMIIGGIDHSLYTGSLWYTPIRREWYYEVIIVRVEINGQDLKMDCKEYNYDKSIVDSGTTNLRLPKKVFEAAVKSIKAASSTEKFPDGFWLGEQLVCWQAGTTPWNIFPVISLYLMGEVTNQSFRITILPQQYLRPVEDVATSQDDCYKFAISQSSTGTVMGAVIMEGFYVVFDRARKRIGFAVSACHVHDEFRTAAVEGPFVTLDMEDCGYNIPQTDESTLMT
T2 sequence (P39900 106-263 Y113D/N119Q/N126H/Y132K/R135E/M156E/V161I/A167E/A173P/H206S/T215V/K233R/I245T/A252Q): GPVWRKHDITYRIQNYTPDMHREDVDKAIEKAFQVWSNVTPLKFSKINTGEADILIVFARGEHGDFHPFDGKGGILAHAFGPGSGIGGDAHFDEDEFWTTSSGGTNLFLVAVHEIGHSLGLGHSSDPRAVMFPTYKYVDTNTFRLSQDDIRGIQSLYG
T3 sequence (P39900 106-263): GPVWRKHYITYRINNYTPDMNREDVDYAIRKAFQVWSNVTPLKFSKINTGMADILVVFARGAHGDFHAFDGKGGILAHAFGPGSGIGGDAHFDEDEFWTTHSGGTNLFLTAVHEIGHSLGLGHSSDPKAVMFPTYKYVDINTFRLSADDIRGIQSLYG

Molecule	Ki (BACE1 [1]) [nM]	Kd (BACE1 [2]) [nM]	also measured
nTIMP-1: N-terminal domain of tissue inhibitor of metalloproteinases 1, endogenous inhibitor of MMPs			Kd (cdMMP-12 mutant D4): 500 nM
nTIMP-2: N-terminal domain of tissue inhibitor of metalloproteinases 2, endogenous inhibitor of MMPs			Kd (cdMMP-12 mutant D4): 290 nM
CNC(=O)[C@H](Cc1c[nH]c2ccccc12)NC(=O)[C@@H](CC(=O)NO)CC(C)C [GM6001, reference compound]			Fibronectin remaining after cdMMP-12 wt hydrolysis (cdMMP-12 wt): significant amounts of fibronectin remained
B1	23	10	Inhibition Potency KI (associated IgG, in parentheses) (BACE1 [1]): 13 nM; Binding Affinity KD (associated IgG, in parentheses) (BACE1 [2]): 7 nM
B2			Inhibition of BACE2 (selectivity) (BACE2): but not BACE2; Inhibition Potency KI (associated IgG, in parentheses) (BACE1 [1]): 13 nM; Binding Affinity KD (associated IgG, in parentheses) (BACE1 [2]): 7 nM
B3			Inhibition of cdMMP-9 (selectivity) (cdMMP-9): did not inhibit
B4			Inhibition of cdMMP-9 (selectivity) (cdMMP-9): did not inhibit
B5	41	21	Inhibition Potency KI (associated IgG, in parentheses) (BACE1 [1]): 35 nM; Binding Affinity KD (associated IgG, in parentheses) (BACE1 [2]): 16 nM
B6	77	130	
B7	87	52	
B8	100	100	
B9	120	110	
B10	210	31	
